Laboratory results: patent US6429304

B1: baculovirus-expressed S. purpuratus katanin p60 subunit with N-terminal His(6) tag (protein)
chain: HHHHHHMSVDEICENTKMGREYALLGNYETSLVYYQGVLQQIQKLLTSVHEPQRKHQWQTIRQELSQEYEHVKNITKTLNGFKSEPAAPEPAPNHRAAPFSHHQHAAKPAAAEPARDPDVWPPPTPVDHRPSPPYQRAARKDPPRRSEPSKPANRAPGNDRGGRGPSDRRGDARSGGGGRGGARGSDKDKNRGGKSDKDKKAPSGEEGDEKKFDPAGYDKDLVENLERDIVQRNPNVHWADIAGLTEAKRLLEEAVVLPLWMPDYFKGIRRPWKGVLMVGPPGTGKTMLAKAVATECGTTFFNVSSASLTSKYHGESEKLVRLLFEMARFYAPSTIFIDEIDSICSKRGTGSEHEASRRVKSELLIQMDGVSGPSAGEESSKMVMVLAATNFPWDIDEALRRRLEKRIYIPLPEIDGREQLLRINLKEVPLADDIDLKSIAEKMDGYSGADITNVCRDASMMAMRRRIQGLRPEEIRHIPKEELNQPSTPADFLLALQKVSKSVGKEDLVKYMAWMEEFGSV
B2: co-expressed recombinant p60/p80 katanin heterodimer (baculovirus, both subunits with N-terminal His(6) tag) (protein)
chain 1: B1 chain
chain 2: HHHHHHMATKRAWKLQELVAHSSNVNCLALGPMSGRVMVTGGEDKKVNLWAVGKQNCIISLSGHTSPVDSVKFNSSEELVVAGSQSGTMKIYDLEPAKIVRTLTGHRNSIRCMDFHPFGEFVASGSTDTNVKLWDVRRKGCIYTYKGHSDQVNMIKFSPDGKWLVTASEDTTIKLWDLTMGKLFQEFKNHTGGVTGIEFHPNEFLLASGSSDRTVQFWDLETFQLVSSTSPGASAVRSISFHPDGSYLFCSSQDMLHAFGWEPIRCFDTFSVGWGKVADTVIASTQLIGASFNATNVSVYVADLSRMSTTGIAQEPQSQPSKTPSGGAEEVPSKPLTASGRKNFVRERPHTTSSKQRQPDVKSEPERQSPTQDEGVKDDDATDIKDPDSYAKIFSPKTRVDHSPERNAQPFPAPLDVPGAQEPEPFKHPPKPAAAAAVAPVSRAPAPSASDWQPAQANPAPNRVPAATKPVPAQEVAPSRKPDPISTIIPSDRNKPANLDMDAFLPPAHAQQAPRVNAPASRKQSDSERIEGLRKGHDSMCQVLSSRHRNLDVVRAIWTAGDAKTSVESVVNMKDQAILVDILNIMLLKKSLWNLDMCVVVLPRLKELLSSKYENYVHTSCACLKLILKNFTSLFNQNIKCPPSGIDITREERYNKCSKCYSYLIATRGYVEEKQHVSGKLGSSFRELHLLLDQLE

Biological target: microtubules prepared from bovine brain tubulin (taxol-stabilized)

| Protein | ATPase activity (malachite green) | maximal basal and microtubule-stimulated ATPase rates relative to p60/p80 | microtubule concentration at peak ATPase stimulation | microtubule severing (fluorescence microscopy assay) | rate of microtubule disassembly (DAPI fluorescence assay) | ATPase activity (malachite green), stimulation by microtubules | maximal microtubule-stimulated ATPase rate |
| --- | --- | --- | --- | --- | --- | --- | --- |
| B1 | p60 alone displayed a microtubule-stimulated ATPase activity | only 2-fold lower than those of the p60/p80 heterodimer | peak at ˜2 µM tubulin | Both p60 and p60/p80 severed microtubules in this assay | p60 was half as active as p60/p80 | – | – |
| B2 | – | – | peak at ˜2 µM tubulin | Both p60 and p60/p80 severed microtubules in this assay | – | this activity was stimulated ˜10-fold by microtubules | maximal microtubule-stimulated rate of 3 ATP/katanin/sec |
